Assay results reported in article PMC1964548, “Structural and Functional Analyses of Five Conserved Positively Charged Residues in the L1 and N-Terminal DNA Binding Motifs of Archaeal RadA Protein” (PLoS ONE, 2007).

Biological target: the molecule itself
Assay: crystal structure; hanging drop vapor diffusion; SsoRadA 24 mg/ml in 30 mM Tris-HCl pH 8.0; reservoir 100 mM KCl, 25 mM MgCl2, 15% isopropanol, 50 mM sodium cacodylate pH 6.0; space group P3_(1), 1.93 Å; 3_(1) overwound right-handed filament

B1: Sulfolobus solfataricus RadA (natural protein, UniProt Q55075 1-324, looked up)
chain: MSNEVEQKKNIKTINDLPGISQTVINKLIEAGYSSLETLAVASPQDLSVAAGIPLSTAQKIIKEARDALDIRFKTALEVKKERMNVKKISTGSQALDGLLAGGIETRTMTEFFGEFGSGKTQLCHQLSVNVQLPPEKGGLSGKAVYIDTEGTFRWERIENMAKALGLDIDNVMNNIYYIRAINTDHQIAIVDDLQELVSKDPSIKLIVVDSVTSHFRAEYPGRENLAVRQQKLNKHLHQLTRLAEVYDIAVIITNQVMARPDMFYGDPTVAVGGHTLYHVPGIRIQLKKSRGNRRIARVVDAPHLPEGEVVFALTEEGIRDAEE
notes: RadA of Sulfolobus solfataricus; Forms a helical filament in the crystal (three protomers per turn, 98 Å pitch; three protomers in the asymmetric unit, each belonging to a filament of its own); also called SsoRadA; wild-type SsoRadA; source: expressed and purified as described previously [16]
B1: binds.
